Test results as given in patent US8791061B2, “Peptides for treating and preventing immune-related disorders, including treating and preventing infection by modulating innate immunity” (Soligenix, Inc., priority 2005, dated 2014).
Entries after “also recorded” stand apart in the source; their conditions may differ. Where no end group is shown, it is not given here. [ ]: non-standard residue; d: D form. Orn = NCCC[C@H](N)C(=O)O

biological target: T1, DPPIV (Mus musculus, UniProt P28843); assay: Plasma DPPIV activity assay with mouse blood; type: biochemical; conditions: peptide 0.82 mM in mouse blood, 2 h at 37° C.; relative to saline control set to 100%
T1 construct: The plasma was transferred to a 96-well assay plate for the DPPIV assay; from tissue; host or cells: pooled heparinized whole blood of ICR mice; plasma isolated after incubation
T1 sequence (P28843 37-760 limits assumed): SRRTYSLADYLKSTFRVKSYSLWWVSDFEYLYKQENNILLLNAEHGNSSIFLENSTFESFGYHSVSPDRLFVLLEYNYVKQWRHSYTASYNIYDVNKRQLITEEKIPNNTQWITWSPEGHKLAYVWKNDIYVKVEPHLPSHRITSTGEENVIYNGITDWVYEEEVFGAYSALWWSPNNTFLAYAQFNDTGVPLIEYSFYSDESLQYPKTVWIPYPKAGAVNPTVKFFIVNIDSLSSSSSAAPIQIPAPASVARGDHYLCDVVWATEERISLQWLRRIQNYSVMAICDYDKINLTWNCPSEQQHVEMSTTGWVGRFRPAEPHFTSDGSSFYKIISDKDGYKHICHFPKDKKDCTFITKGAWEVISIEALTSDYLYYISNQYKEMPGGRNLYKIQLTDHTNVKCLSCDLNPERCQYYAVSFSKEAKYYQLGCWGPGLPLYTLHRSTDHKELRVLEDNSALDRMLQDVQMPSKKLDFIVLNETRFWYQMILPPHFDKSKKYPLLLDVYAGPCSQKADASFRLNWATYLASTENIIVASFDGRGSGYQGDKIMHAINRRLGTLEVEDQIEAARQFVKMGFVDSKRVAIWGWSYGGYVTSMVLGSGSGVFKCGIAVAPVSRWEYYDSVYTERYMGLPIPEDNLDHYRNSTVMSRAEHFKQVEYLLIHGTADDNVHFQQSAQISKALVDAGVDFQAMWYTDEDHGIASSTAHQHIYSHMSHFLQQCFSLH
Protocol: Mouse blood was obtained by cardiac puncture from ICR mice and collected in heparinized blood collection tubes. Blood from several mice was pooled and aliquoted into […]. The peptide was dissolved in acetate buffered saline, pH 5.5, to a concentration of 9 mM. Of this stock solution 30 μL were added to 300 μL of blood and mixed by resuspension (concentration in blood 0.82 mM). For the control, 30 μL of blank acetate buffered saline was added to 300 μL of blood. Each peptide group was prepared in triplicate, whereas the control was prepared in six replicates. The samples were incubated at 37° C. in closed microtubes for two hours. After incubation the plasma was isolated from the samples by centrifugation at 4000 rcf. The plasma was transferred to a 96-well assay plate for the DPPIV assay. The assay was started by adding 5 μL of the DPPIV substrate gly-pro-p-nitroanilide (16 mM in de-ionized water) to 95 μl of plasma (concentration in plasma 0.8 mM) and the increase in UV absorbance (405 nm) was monitored over a 20 min time period. The rate of the production of p-nitroaniline by enzymatic cleavage of gly-pro-p-nitroanilide was taken as the activity of DPPIV (Durinx C et al., (2001) “Reference values for plasma dipeptidyl-peptidase IV activity and their association with other laboratory parameters”. Clin Chem Lab Med. 39(2):155-9.)
The effect of the peptides on the activity of DPPIV was observed. Results are presented as normalized, averaged % activity relative to saline control (set to 100%). Anything less than 100% activity represents a reduction in DPPIV activity.
In one aspect of the invention, a reduction by of DPPIV activity by about, or in one embodiment, at least, 25% (i.e. to about 75%+/−5%) was deemed to be active. A person skilled in the art would appreciate that the desired level of activity may vary depending on the use of the peptides.

Substance | % DPPIV Activity (Saline)
74 (CPVIRH-NH2) [compound 74] | 45%
3 (SRIVPA; IMMUNOLOGICAL PEPTIDE) [compound 3] | 60%
41 (IRVPA-NH2) [compound 41] | 49%
28 (RIIPA-NH2) [compound 28] | 20%
86 (Lys-Val-Pro-NH2) [compound 86] | 49%
85 (Ser-Val-Pro-NH2) [compound 85] | 71%
1 (KSRIVP; IMMUNOLOGICAL PEPTIDE) [compound 1] | 76%
12 (RRIVPA; IMMUNOLOGICAL PEPTIDE) [compound 12] | 61%
73 (SPVIRH-NH2) [compound 73] | 66%
19 (GGIVPA-NH2) [compound 19] | 70%
24 (RIVPL-NH2) [compound 24] | 74%
29 (AVPIR-NH2) [compound 29] | 0%
23 (RIVPS-NH2) [compound 23] | 62%
46 (RVPSLL-NH2) [compound 46] | 70%
50 (RVPS-NH2) [compound 50] | 59%
18 (RIVPGGA-NH2) [compound 18] | 65%
9 (RIPA; IMMUNOLOGICAL PEPTIDE) [compound 9] | 51%
54 (RIVPAIPVSLL-NH2) [compound 54] | 4%
49 (IRVP-NH2) [compound 49] | 56%
75 (RIEPA; IMMUNOLOGICAL PEPTIDE) [compound 75] | 79%
84 ([Orn]-Val-Pro-NH2; N-terminus assumed; SMILES CC(C)[C@H](NC(=O)[C@@H](N)CCCN)C(=O)N1CCC[C@H]1C(N)=O) [compound 84] | 79%
90 (RIVPA[dY]-NH2) [compound 90] | 59%

Substance | % DPPIV Activity (Saline)
45 (KPARVPS; IMMUNOLOGICAL PEPTIDE) [compound 45] | 27%
83 (Arg-Ile-Pro-NH2) [compound 83] | 47%
11 (RAVPA; IMMUNOLOGICAL PEPTIDE) [compound 11] | 39%
88 (Gly-Val-Pro-NH2) [compound 88] | 69%
76 (RIVPE-NH2) [compound 76] | 69%
87 (Arg-Arg-Pro-NH2) [compound 87] | 72%
35 (RIVPF-NH2) [compound 35] | 77%
77 (RIVPH-NH2) [compound 77] | 53%
71 (RIWPA-NH2) [compound 71] | 78%
43 (SIVPA-NH2) [compound 43] | 80%
65 (RIGPA-NH2) [compound 65] | 77%
30 (APVIR-NH2) [compound 30] | 36%
80 (KVIPS-NH2) [compound 80] | 30%
47 (KPRAVP; IMMUNOLOGICAL PEPTIDE) [compound 47] | 52%
6 (KIVPA; IMMUNOLOGICAL PEPTIDE) [compound 6] | 64%
17 (RIVPP-NH2) [compound 17] | 82%
51 (Arg-Val-Pro-NH2) [compound 51] | 70%
22 (RIVPG-NH2) [compound 22] | 61%
40 (ARVPA-NH2) [compound 40] | 68%
37 (RLVPA-NH2) [compound 37] | 39%
52 (PSVPGS-NH2) [compound 52] | 74%
78 (RSVPA-NH2) [compound 78] | 75%

Substance | % DPPIV Activity (Saline)
4 (SRIVP; IMMUNOLOGICAL PEPTIDE) [compound 4] | 64%
15 (RPVPA-NH2) [compound 15] | 27%
16 (RIPPA-NH2) [compound 16] | 66%
64 (RIVPPA-NH2) [compound 64] | 74%
61 (RIVPAC-NH2) [compound 61] | 52%
89 (Lys-His-Pro-NH2) [compound 89] | 72%
26 (RIPVA-NH2) [compound 26] | −4%
38 (HIVPA-NH2) [compound 38] | 47%
5 (RIVPA; IMMUNOLOGICAL PEPTIDE) [compound 5] | 66%
70 (RIHPA-NH2) [compound 70] | 37%
25 (RHVPA-NH2) [compound 25] | 38%
81 (KVVPS-NH2) [compound 81] | 57%
13 (RKVPA-NH2) [compound 13] | 50%
82 (KPRP-NH2) [compound 82] | 52%
27 (RVIPA-NH2) [compound 27] | 67%
62 ([code r][code r]VP-NH2) [compound 62] | 51%
21 (RGVPA-NH2) [compound 21] | 64%
14 (RIVPK-NH2) [compound 14] | 67%
8 (RVPA; IMMUNOLOGICAL PEPTIDE) [compound 8] | 64%
20 (GIVPA-NH2) [compound 20] | 73%
72 (RIVPW-NH2) [compound 72] | 71%
53 (GLKHPS-NH2) [compound 53] | 68%

system: S. aureus 25923; assay: Non-antimicrobial activity, WST-1 colorimetric bacterial viability assay; type: cell-based; conditions: peptide 200 μM, 2 hours growth, compared with erythromycin 120 μg/ml
Protocol: Bacteria (S. aureus 25923) were seeded into wells containing peptide (200 μM), vehicle (Tris), or antibiotic (erythromycin; 120 μg/ml). The bacteria were allowed to grow for 2 hours. Thereafter, bacterial viability was determined utilizing a WST-1 colorimetric viability assay (catalogue number 1 644 807; Roche Diagnostics). DMEM and DMEM+WST-1 were included as background controls.

Substance | antimicrobial activity (bacterial viability)
1 (KSRIVP; IMMUNOLOGICAL PEPTIDE) [compound 1] | lacked antimicrobial activity
47 (KPRAVP; IMMUNOLOGICAL PEPTIDE) [compound 47] | lack of activity; also recorded: lacked antimicrobial activity
5 (RIVPA; IMMUNOLOGICAL PEPTIDE) [compound 5] | lack of activity; also recorded: lacked antimicrobial activity

system: S. aureus 25923; assay: In vivo protection, mice infected IP with S. aureus, peptide after infection; conditions: peptide IP 4 hours after infection, 9-24 mg/kg depending on peptide, 24 hours post-infection, vs control
Protocol: Mice were infected with S. aureus 25923 via intraperitoneal (IP) injection. Four hours later, the peptide of SEQ ID NOs:1, 4, 5, 6, 45, and 47 were administered at 12 mg/kg and 24 mg/kg for SEQ. ID. NO. 1 (FIGS. 2A and 2B), 9.6 mg/kg for SEQ. ID. NO. 5 (FIG. 2C), 13 mg/kg for SEQ. ID. NO. 47 (FIG. 2D), 12 mg/kg for SEQ. ID. NO. 4 (FIG. 2E), 9 mg/kg for SEQ. ID. NO. 6 (FIG. 2F), and 13 mg/kg for SEQ. ID. NO. 45 (FIG. 2G), via IP injection. Twenty-four hours post-infection, surviving animals were sacrificed, and intraperitoneal lavage fluid was plated to determine residual bacterial counts (# colony forming units per ml (CFU/ml)) in the presence and absence of peptide treatment.
Dead animals were assigned the highest bacterial count of any animal in the study.

Substance | protection (residual bacterial counts CFU/ml in intraperitoneal lavage fluid)
1 (KSRIVP; IMMUNOLOGICAL PEPTIDE) [compound 1] | clearly demonstrated protection
45 (KPARVPS; IMMUNOLOGICAL PEPTIDE) [compound 45] | clearly demonstrated protection
47 (KPRAVP; IMMUNOLOGICAL PEPTIDE) [compound 47] | clearly demonstrated protection
6 (KIVPA; IMMUNOLOGICAL PEPTIDE) [compound 6] | clearly demonstrated protection
4 (SRIVP; IMMUNOLOGICAL PEPTIDE) [compound 4] | clearly demonstrated protection
5 (RIVPA; IMMUNOLOGICAL PEPTIDE) [compound 5] | clearly demonstrated protection

system: S. aureus 25923; assay: Prophylactic in vivo protection, peptide before IP S. aureus infection of mice; conditions: mice; peptide IP 24 hours prior to infection, 12 mg/kg (SEQ 1), 11.5 mg/kg (SEQ 5); 24 hours post-infection
Protocol: Twenty-four hours prior to infection, peptide was administered at 12 mg/kg (SEQ. ID. NO. 1, FIG. 3A) and 11.5 mg/kg (SEQ. ID. No. 5, FIG. 3B), via IP injection. Mice were then infected with S. aureus 25923 via IP injection. Twenty-four hours post-infection, surviving animals were sacrificed and intraperitoneal lavage fluid was plated to determine residual bacterial counts (# colony forming units per ml (CFU/ml)) in the presence and absence of peptide treatment.
Dead animals were assigned the highest bacterial count of any animal in the study. The peptides of SEQ. ID.

Substance | protection (residual bacterial counts CFU/ml in intraperitoneal lavage fluid)
1 (KSRIVP; IMMUNOLOGICAL PEPTIDE) [compound 1] | clearly demonstrated protection
5 (RIVPA; IMMUNOLOGICAL PEPTIDE) [compound 5] | clearly demonstrated protection

same assay, conditions: prophylactic peptide IP; control 2 mice dead

Substance | mouse dead (peptide treatment)
1 (KSRIVP; IMMUNOLOGICAL PEPTIDE) [compound 1] | 0
5 (RIVPA; IMMUNOLOGICAL PEPTIDE) [compound 5] | 0
